Source: patent publication US20240279281A1, “Peptide Inhibitors of Interleukin-23 Receptor” (Janssen Pharmaceutica NV, priority 2023, published 2024)
Starred links: 1 amine or outer side, 2 acyl side, 3 side chain; linkers in the order of their positions; H or OH if unused. Positions of bridges follow the written chain, without caps; N, C: chain ends. Non-standard residues stand in square brackets, D forms with d. No end group written: not given here. X1 = 3‑(7-(3-acetamidophenyl)-1H-indol-3-yl)‑2‑aminopropanoic acid, CC(=O)Nc1cccc(-c2cccc3c(CC(N[*:1])C(=O)[*:2])c[nH]c23)c1; AEF(G) = 2-amino-3-(4-(2-guanidinoethoxy)phenyl)propanoic acid, N=C(N)NCCOc1ccc(C[C@H](N[*:1])C(=O)[*:2])cc1; X10 = 2‑amino‑3‑(4-(2-guanidinoethoxy)phenyl)propanoic acid, N=C(N)NCCOc1ccc(CC(N[*:1])C(=O)[*:2])cc1; Trp(7-(3-AcNH-Ph)) = CC(=O)Nc1cccc(-c2cccc3c(C[C@H](N)C(=O)O)c[nH]c23)c1; N‑methyl‑N‑acetyllysine = N-methyl-N-acetyllysine; Phe(4-OMe) = COc1ccc(C[C@H](N[*:1])C(=O)[*:2])cc1; 2Nal(6-OH) = N[C@@H](Cc1ccc2cc(O)ccc2c1)C(=O)O; Trp(7-Me) = Cc1cccc2c(C[C@H](N)C(=O)O)c[nH]c12; dLys(Me3) = C[N+](C)(C)CCCC[C@@H](N)C(=O)O; AEF = NCCOc1ccc(C[C@H](N)C(=O)O)cc1; 3Pal = N[C@@H](Cc1cccnc1)C(=O)O; NMeK = CN[C@@H](CCCCN)C(=O)O; Pen = CC(C)(S)[C@H](N)C(=O)O; αMeK = C[C@](N)(CCCCN)C(=O)O; αMeC = C[C@](N)(CS)C(=O)O; lipid = not defined here; Thp = NC1(C(=O)O)CCOCC1; Abu = CC[C@H](N)C(=O)O; Sar = CNCC(=O)O

T1: interleukin-23 receptor (IL-23R), Q5VWK5
T1 chain: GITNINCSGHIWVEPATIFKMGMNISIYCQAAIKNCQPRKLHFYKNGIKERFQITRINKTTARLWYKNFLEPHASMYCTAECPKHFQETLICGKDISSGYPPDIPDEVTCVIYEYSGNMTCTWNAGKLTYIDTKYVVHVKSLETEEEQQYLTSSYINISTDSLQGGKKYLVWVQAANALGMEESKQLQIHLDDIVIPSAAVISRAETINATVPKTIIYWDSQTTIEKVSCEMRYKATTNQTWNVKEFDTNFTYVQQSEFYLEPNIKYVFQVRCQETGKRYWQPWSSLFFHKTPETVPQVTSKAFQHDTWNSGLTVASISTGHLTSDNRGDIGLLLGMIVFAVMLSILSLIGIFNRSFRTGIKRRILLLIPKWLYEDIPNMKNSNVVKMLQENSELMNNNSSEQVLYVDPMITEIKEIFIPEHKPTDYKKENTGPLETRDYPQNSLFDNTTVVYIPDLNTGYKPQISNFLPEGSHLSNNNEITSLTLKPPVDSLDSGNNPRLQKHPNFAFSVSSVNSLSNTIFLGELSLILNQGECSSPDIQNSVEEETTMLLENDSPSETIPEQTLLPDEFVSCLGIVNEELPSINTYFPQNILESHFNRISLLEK


Molecular target: T1, interleukin-23 receptor (IL-23R), Q5VWK5
Assay: cell-based or functional assay

Row | Binder | IL23R Reporter Assay IC50 [nM] | PBMC pSTAT3 IC50
1 | R[Abu]NTWK(Ac)[αMeC][AEF][2Nal(6-OH)][Thp]K(Ac)N[3Pal][Sar] (ends and bridges not checked) [SEQ ID NO: 29] | < 10 | < 0.1 nM
2 | R[Pen]NT[X1]K(Ac)[Pen][X10][2‑amino‑3‑(6-hydroxynaphthalen-2-yl)propanoic acid][Thp]EN[3Pal][Sar] (ends and bridges not checked) [SEQ ID NO: 35] | < 10 | < 0.1 nM
3 | R[Pen]NT[X1]K(Ac)[Pen][5‑(4-(2-amino-2-carboxyethyl)phenoxy)‑N,N,N‑trimethylpentan‑1‑aminium][2‑amino‑3‑(6-hydroxynaphthalen-2-yl)propanoic acid][Thp]EN[3Pal][Sar] (not fully specified (bridges); ends and bridges not checked) [SEQ ID NO: 39] | < 10 | 
4 | [dLys(Me3)][Pen]NT[Trp(7-(3-AcNH-Ph))]K(Ac)[Pen][AEF(G)][2Nal(6-OH)][Thp]EN[3Pal][Sar] (ends and bridges not checked) [SEQ ID NO: 33] | < 10 | < 10 pM
5 | [dLys(Me3)][Pen]NT[X1]K(Ac)[Pen][5‑(4-(2-amino-2-carboxyethyl)phenoxy)‑N,N,N‑trimethylpentan‑1‑aminium][2‑amino‑3‑(6-hydroxynaphthalen-2-yl)propanoic acid][Thp]EN[3Pal][Sar] (ends and bridges not checked) [SEQ ID NO: 37] | < 10 | 
6 | RCNT[Trp(7-Me)]K(Ac)[αMeC][AEF][2Nal(6-OH)][Thp]EN[3Pal][Sar] (ends and bridges not checked) [SEQ ID NO: 4] | < 10 | 
7 | R[Pen]NT[Trp(7-Me)]K(Ac)[Pen][AEF(G)][2Nal(6-OH)][Thp]EN[3Pal][Sar] (ends and bridges not checked) [SEQ ID NO: 32] | < 10 | < 10 pM
8 | [Pen]NT[Trp(7-Me)]K(Ac)[Pen][AEF][2Nal(6-OH)][Thp]EN[3Pal][Sar] (ends and bridges not checked) [SEQ ID NO: 3] | < 10 | 

The next lines start with the values.

Row | IL23R Reporter Assay IC50 [nM] | PBMC pSTAT3 IC50 | Binder
9 | > 100 | < 1 nM | [Pen]NT[Trp(7-Me)]K(Ac)[Pen][2‑amino‑3‑(4-(2-aminoethoxy)phenyl)propanoic acid][2‑amino‑3‑(6-hydroxynaphthalen-2-yl)propanoic acid][Thp]K(Ac)N[3Pal][Sar]K(lipid) (disulfide 1-6 (inferred); ends not checked; also: K14: lipidated lysine) [SEQ ID NO: 278]
10 | > 100 | < 1 nM | [Pen]K(lipid)T[Trp(7-Me)]K(Ac)[Pen][2‑amino‑3‑(4-(2-aminoethoxy)phenyl)propanoic acid][2‑amino‑3‑(6-hydroxynaphthalen-2-yl)propanoic acid][Thp]EN[3Pal][Sar] (disulfide 1-6 (inferred); ends not checked; also: K2: lipidated lysine) [SEQ ID NO: 276]
11 | > 100 | < 1 nM | [Pen]NT[Trp(7-Me)]K(Ac)[Pen][2‑amino‑3‑(4-(2-aminoethoxy)phenyl)propanoic acid][2‑amino‑3‑(6-hydroxynaphthalen-2-yl)propanoic acid][Thp]K(Ac)N[3Pal][Sar]K(lipid) (disulfide 1-6 (inferred); ends not checked; also: K14: lipidated lysine) [SEQ ID NO: 275]
12 | < 10 |  | [Pen]NT[Trp(7-Me)]K(lipid)[Pen]F[2Nal(6-OH)][αMeK]LN[3Pal][Sar] (not fully specified (bridges); ends and bridges not checked; also: lipid group unspecified) [SEQ ID NO: 305]
13 | < 10 | < 0.1 nM | R[Pen]NT[Trp(7-Me)]K(Ac)[Pen][2‑amino‑3‑(4-(2-aminoethoxy)phenyl)propanoic acid][2‑amino‑3‑(6-hydroxynaphthalen-2-yl)propanoic acid][Thp]K(Ac)N[3Pal][Sar] (disulfide 2-7 (inferred); ends not checked) [SEQ ID NO: 219]
14 | > 100 | < 1 nM | R[Pen]NT[Trp(7-Me)]K(Ac)[Pen][AEF][2Nal(6-OH)][Thp]EN[3Pal][NMeK](lipid) (disulfide 2-7 (inferred); not fully specified; ends not checked) [SEQ ID NO: 279]
15 | < 10 |  | [Pen]NT[Trp(7-Me)]K(Ac)[Pen][Phe(4-OMe)][2Nal(6-OH)][αMeK]LN[3Pal][Sar] (not fully specified (bridges); ends and bridges not checked) [SEQ ID NO: 306]
16 | > 100 | > 1 nM | R[Pen]NT[Trp(7-Me)]K(Ac)[Pen][2‑amino‑3‑(4-(2-aminoethoxy)phenyl)propanoic acid][2‑amino‑3‑(6-hydroxynaphthalen-2-yl)propanoic acid][Thp]K(Ac)N[3Pal][Sar]K(lipid) (disulfide 2-7 (inferred); ends not checked; also: Lys15 lipidated, lipid not given here) [SEQ ID NO: 222]
17 | < 10 | < 0.1 nM | [N‑amino‑O‑(2-(2-(methylamino)ethoxy)ethyl)‑D‑serine][Pen]NT[Trp(7-Me)][N‑methyl‑N‑acetyllysine][Pen][AEF][2Nal(6-OH)][Thp]DN[3Pal][Sar] (disulfide 2-7 (inferred); ends not checked) [SEQ ID NO: 290]
18 | < 10 |  | [Pen]LT[Trp(7-Me)]K(lipid)[Pen]F[2Nal(6-OH)][αMeK]LN[3Pal][Sar] (disulfide 1-6 (inferred); ends not checked; also: Lys5 lipidated, lipid not given here) [SEQ ID NO: 303]
19 | < 10 |  | [Pen]LT[Trp(7-Me)]K(Ac)[Pen]F[2Nal(6-OH)][αMeK]LN[3Pal][Sar] (disulfide 1-6 (inferred); ends not checked) [SEQ ID NO: 304]
